± gives the uncertainty stated by the source.

The nature of the series: abundance fitness (aPCA) (normalised: wild type 0, dead -1); higher = more abundant; growth selection in yeast, the domain comes from the species named. To be noted: Homo sapiens.
As for “Telomeric repeat-binding factor 2 A513T, Q15554”, the abundance fitness was 0.25 ± 0.098.
“Telomeric repeat-binding factor 2 A514R, Q15554” yielded an abundance fitness of -0.428 ± 0.11.
Take “Telomeric repeat-binding factor 2 E509V, Q15554”: the abundance fitness is -0.353 ± 0.076.
Next, “Telomeric repeat-binding factor 2 I529L, Q15554”: -0.213 ± 0.079; “Telomeric repeat-binding factor 2 K491R, Q15554”: -0.21 ± 0.065; “Telomeric repeat-binding factor 2 K517Q, Q15554”: -0.035 ± 0.044.
To “Telomeric repeat-binding factor 2 N518H, Q15554” belongs -0.227 ± 0.068.
“Telomeric repeat-binding factor 2 N523D, Q15554” returned an abundance fitness of -0.199 ± 0.061.
Next, “Telomeric repeat-binding factor 2 P520D, Q15554”: -0.564 ± 0.055; “Telomeric repeat-binding factor 2 Q490K, Q15554”: -0.247 ± 0.21.
Next, “Telomeric repeat-binding factor 2 S497D, Q15554”: 0.392 ± 0.099; “Telomeric repeat-binding factor 2 S516L, Q15554”: 0.222 ± 0.087; “Telomeric repeat-binding factor 2 V522R, Q15554”: 0.031 ± 0.058.
To “Telomeric repeat-binding factor 2 W499Q, Q15554” belongs -0.018 ± 0.095; to “Telomeric repeat-binding factor 2 Y507F, Q15554”, -0.559 ± 0.17.
